In publication doi:10.64898/2025.12.06.692711:

Experiments:
[1] = target: HTkC (TK1040), face-to-face (FtF) histone from Thermococcus kodakarensis (Thermococcus kodakarensis); assay: SEC-MALS
[2] = target: HTkC R45A (Thermococcus kodakarensis); assay: SEC-MALS

Row | stoichiometry N [1] | stoichiometry N [2] | Substance
1 | 4 | – | HTkC (TK1040), face-to-face (FtF) histone from Thermococcus kodakarensis (natural protein)
2 | – | 2 | HTkC R45A (natural protein)
